pIC50, pKi: −log10 of the molar value.
target: WDR5 (WD (Trp-Asp) repeat domain 5) (UniProt P61964); test: fluorescence polarisation

Row | pIC50 | pKi | Substance
1 | < 3.52 | < 4.19 | AKA (peptide)
2 |  | 7.70 | ARC (peptide)
3 | < 4.00 |  | ARE (peptide)
4 | 3.55 |  | ARF (peptide)
5 | 4.99 | 5.66 | ARG (peptide)
6 | 4.47 | 5.14 | ARL (peptide)
7 | 5.74 |  | ARS (peptide)
8 | 7.10 |  | ART (peptide)
9 | 6.96 | 7.70 | ARV (peptide)
10 | 6.27 | 6.92 | Ac-ARA-NH2 (peptide)
11 | 5.74 | 6.40 | CRA (peptide)
12 | 5.51 |  | FRA (peptide)
13 | 4.11 | 4.78 | GRA (peptide)
14 | 5.77 |  | HRA (peptide)
15 | 4.97 | 5.64 | LRA (peptide)
16 | 5.54 |  | SRA (peptide)
17 | 5.54 |  | TRA (peptide)
18 | 6.62 | 7.30 | VRA (peptide)
